The values that follow come from publication PMC2883556 (PLoS ONE, 2010).

The target of test [1] is T1, BoNT/B GST-fusion peptide fragment H1 (Clostridium botulinum strain Okra / …, UniProt B1INP5).
T1 construct: not shown: GST, N-terminal, kept
Kind of test: ELISA. The following applies: one partner purified. A general note: In an ELISA, binding on a coated surface is turned into a signal by an enzyme label.

For test [2], the target named is T2, Botulinum neurotoxin serotype C (Clostridium botulinum, UniProt P18640).
T2 construct: source: bought: Metabiologics
Nature of the test: ELISA. Particulars: both partners purified.

Test [3] addresses T3, BoNT/B GST-fusion peptide fragment H4 (Clostridium botulinum strain Okra / …, UniProt B1INP5).
T3 construct: not shown: GST, N-terminal, kept
Kind of test: ELISA. Particulars: one partner purified.

For test [4], the target named is T4, BoNT/B GST-fusion peptide fragment H3 (Clostridium botulinum strain Okra / …, UniProt B1INP5).
T4 construct: Cloned in pGS-21a; not shown: GST, N-terminal, kept
Nature of the test: ELISA. Particulars: one partner purified.

The target in test [5] is T5, BoNT/B GST-fusion peptide fragment L1 (Clostridium botulinum strain Okra / …, UniProt B1INP5).
T5 construct: not shown: GST, N-terminal, kept
Kind of test: ELISA. Particulars: one partner purified.

The target of test [6] is T6, BoNT/B GST-fusion peptide fragment H2 (Clostridium botulinum strain Okra / …, UniProt B1INP5).
T6 construct: not shown: GST, N-terminal, kept
Kind of test: ELISA. Particulars: one partner purified.

Test [7] concerns the target T7, BoNT/B GST-fusion peptide fragment L2 (Clostridium botulinum strain Okra / …, UniProt B1INP5).
T7 construct: Cloned in pGS-21a; not shown: GST, N-terminal, kept
Nature of the test: ELISA. The following applies: one partner purified.

The target of test [8] is T8, Botulinum neurotoxin serotype D (Clostridium botulinum, UniProt P19321).
T8 construct: source: bought: Metabiologics
Kind of test: ELISA. The following applies: both partners purified.

The target in test [9] is T9, BoNT/B GST-fusion peptide fragment Lc (Clostridium botulinum Okra / Type B1, UniProt B1INP5).
T9 construct: not shown: GST, N-terminal, kept
Kind of test: ELISA. The following applies: one partner purified.

In test [10] the target is T10, BoNT/B GST-fusion peptide fragment H5 (Clostridium botulinum Okra / Type B1, UniProt B1INP5).
T10 construct: Cloned in pGS-21a; not shown: GST, N-terminal, kept
Nature of the test: ELISA. Particulars: one partner purified.

Test [11] addresses T11, BoNT/B GST-fusion peptide fragment Hc (Clostridium botulinum strain Okra / …, UniProt B1INP5).
T11 construct: Cloned in pGS-21a; not shown: GST, N-terminal, kept
Nature of the test: ELISA. Particulars: one partner purified.

Test [12] has as its target T4, BoNT/B GST-fusion peptide fragment H3. Nature of the test: ELISA. Particulars: one partner purified. This is another data set of the same source.
The target in test [13] is BoNT/B heavy chain (band of the reduced holotoxin) (Clostridium botulinum Okra / Type B1, UniProt B1INP5). Kind of test: far-Western, overlay or dot blot. Particulars: both partners purified.

B1: monoclonal antibody MCS6-27 (antibody, V domains shown)
VH: EVQLEQSGPGLVKPSQSLSLTCTVTGYSITNDYAWNWIRQFPGNKLEWMGYINYSGTTSYNPSLKSRISITRDTSKNQFFLQFNSVTTEDTATYYCARSPLAYWGQGTLVTVSA
VL: DIVLTQTPASLSVSVGETVTITCRASENIYSHLAWYQQKQGKSPQLLVYTATNLADGVPSRFSGRGSGTQYSLKINSLQSEDFGIYFCQHFWGTPWTFGGGTKLEIK
notes: also called mAb MCS6-27
Regarding B1, the binding result is on record as “no binding” in test [1]; “no binding (tested: 10 µg/mL)” in test [2]; “no binding” in test [3]; “no binding” in [4]; “no binding” in test [5]; “no binding” in test [6]. Besides, the binding result in test [7] was “no binding”; in [8], “no binding (tested: 10 µg/mL)”; in [9] it was “no binding”; in test [10], “binds”; in test [11] it was “binds”.

B2: monoclonal antibody F29-40 (antibody, V domains shown)
VH: EVQLEESGPELVKPGTSVKISCKASGYSFTGYIINWVMQSQGKTPEWIGRINPNNGDTSYNQKFKGKATLTVDRSSSTAHMEVRSLTSEDSAVYYCARTGFGYWGQGTLVTVSA
VL: DIVITQTPASLAVSLGQRATISCRASESINYYGTNLLQWYQQKPGQPPKLLIYAASNVESGVPARFSGSGSGTDFSLNIHPVEEDDIAMYFCQQSRKVPFTFGSGTRLEIK
notes: also called mAb F29-40
For B2, the binding result is reported as “no binding” in test [1]; “no binding (tested: 10 µg/mL)” in test [2]; “no binding” in test [3]; “no binding” in [5]; “no binding” in test [6]; “no binding” in test [7]. The binding result in test [8] is recorded as “no binding (tested: 10 µg/mL)”; in [9] it was “no binding”; in test [12], “binds”; in test [10], “binds”; in [11], “binds”; in test [13], “binds”.
